To fix the notation:
B1: BCOR^N1591/PCGF1^RAWUL dimer (complex)
chain 1: DDDASGTWDFYGSSVCEPDDESGYDVLANPPGPEDQDDDDDAYSDVFEFEFSETPLLPCYNIQVSVAQGPRNWLLLSDVLKKLKMSSRIFRCNFPNVEIVTIAEAEFYRQVSASLLFSCSKDLEAFNPESKELLDLVEFTNEIQTLLGSSVEWLHPSDLASDNYW
chain 2: LPFSSFDHSKAHYYRYDEQLNLCLERLSSGKDKNKSVLQNKYVRCSVRAEVRHLRRVLCHRLMLNPQHVQLLFDNEVLPDHMTMKQIWLSRWFGKPSPLLLQYSVK
B2: BCOR^N1624/PCGF1^RAWUL dimer (complex)
chain 1: EDQDDDDDAYSDVFEFEFSETPLLPCYNIQVSVAQGPRNWLLLSDVLKKLKMSSRIFRCNFPNVEIVTIAEAEFYRQVSASLLFSCSKDLEAFNPESKELLDLVEFTNEIQTLLGSSVEWLHPSDLASDNYW
chain 2: LPFSSFDHSKAHYYRYDEQLNLCLERLSSGKDKNKSVLQNKYVRCSVRAEVRHLRRVLCHRLMLNPQHVQLLFDNEVLPDHMTMKQIWLSRWFGKPSPLLLQYSVK
B3: BCOR^N1594/PCGF1^RAWUL dimer (complex)
chain 1: ASGTWDFYGSSVCEPDDESGYDVLANPPGPEDQDDDDDAYSDVFEFEFSETPLLPCYNIQVSVAQGPRNWLLLSDVLKKLKMSSRIFRCNFPNVEIVTIAEAEFYRQVSASLLFSCSKDLEAFNPESKELLDLVEFTNEIQTLLGSSVEWLHPSDLASDNYW
chain 2: LPFSSFDHSKAHYYRYDEQLNLCLERLSSGKDKNKSVLQNKYVRCSVRAEVRHLRRVLCHRLMLNPQHVQLLFDNEVLPDHMTMKQIWLSRWFGKPSPLLLQYSVK
B4: BCOR^N1607/PCGF1^RAWUL dimer (complex)
chain 1: EPDDESGYDVLANPPGPEDQDDDDDAYSDVFEFEFSETPLLPCYNIQVSVAQGPRNWLLLSDVLKKLKMSSRIFRCNFPNVEIVTIAEAEFYRQVSASLLFSCSKDLEAFNPESKELLDLVEFTNEIQTLLGSSVEWLHPSDLASDNYW
chain 2: LPFSSFDHSKAHYYRYDEQLNLCLERLSSGKDKNKSVLQNKYVRCSVRAEVRHLRRVLCHRLMLNPQHVQLLFDNEVLPDHMTMKQIWLSRWFGKPSPLLLQYSVK
B5: BCOR^N1612/PCGF1^RAWUL dimer (complex)
chain 1: SGYDVLANPPGPEDQDDDDDAYSDVFEFEFSETPLLPCYNIQVSVAQGPRNWLLLSDVLKKLKMSSRIFRCNFPNVEIVTIAEAEFYRQVSASLLFSCSKDLEAFNPESKELLDLVEFTNEIQTLLGSSVEWLHPSDLASDNYW
chain 2: LPFSSFDHSKAHYYRYDEQLNLCLERLSSGKDKNKSVLQNKYVRCSVRAEVRHLRRVLCHRLMLNPQHVQLLFDNEVLPDHMTMKQIWLSRWFGKPSPLLLQYSVK
B6: BCOR^ANK-linker (residues 1461-1635) (domain or fragment, UniProt Q6W2J9 1461-1635, looked up)
chain: NAGETLLQRAARLGYEEVVLYCLENKICDVNHRDNAGYCALHEACARGWLNIVRHLLEYGADVNCSAQDGTRPLHDAVENDHLEIVRLLLSYGADPTLATYSGRTIMKMTHSELMEKFLTDYLNDLQGRNDDDASGTWDFYGSSVCEPDDESGYDVLANPPGPEDQDDDDDAYSD

The target in one test is T1, KDM2B^F-box-LRRs/SKP1 dimer (UniProt Q8NHM5 1059-1336; P63208 2-163). Nature of the test: ITC. Background: In ITC the heat of successive injections is recorded.
T1 sequence (Q8NHM5 1059-1336, chain 1 of 2): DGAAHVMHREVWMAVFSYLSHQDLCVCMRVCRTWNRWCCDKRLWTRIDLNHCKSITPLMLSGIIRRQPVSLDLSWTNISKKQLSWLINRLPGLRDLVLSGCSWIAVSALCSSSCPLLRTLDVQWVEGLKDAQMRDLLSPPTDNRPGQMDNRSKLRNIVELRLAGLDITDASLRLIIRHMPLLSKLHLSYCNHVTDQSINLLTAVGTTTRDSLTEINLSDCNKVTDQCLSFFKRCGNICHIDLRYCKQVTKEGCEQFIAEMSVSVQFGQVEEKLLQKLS
T1 sequence (P63208 2-163, chain 2 of 2): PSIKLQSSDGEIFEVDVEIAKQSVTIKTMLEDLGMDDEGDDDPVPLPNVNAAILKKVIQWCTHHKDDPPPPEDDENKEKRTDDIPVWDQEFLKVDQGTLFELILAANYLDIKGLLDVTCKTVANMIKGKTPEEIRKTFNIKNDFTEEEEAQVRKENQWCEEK
Usually Kd stands for the concentration at which binding is half-saturated. B1: binding was put at a Kd of 240 nM.

For B2, the dissociation constant Kd amounted to 5930 nM. Compared with the last molecule, the Kd is about 25-fold higher.

B3: the Kd was 250 nM.

For the molecule B4, binding was characterised by a dissociation constant (Kd) of 270 nM.

In turn, B5 came in with a Kd of 850 nM.

The next test has as its target T1, KDM2B^F-box-LRRs/SKP1 dimer. Nature of the test: ITC. The source holds these as a separate data set.
Molecule B6 gave a Kd of 6350 nM.

The record behind these values is paper PMC11387744 (Communications Biology, 2024).
